Assay results as given in patent US20070191278A1 (AVIDEX, published 2007).

How the values were obtained:
[1] = molecular target: HLA-A2-pol (biotinylated HLA-A2 plus HIV-1 polymerase 476-484, immobilised on streptavidin) (human; HIV-1)
[2] = molecular target: HLA-A2-flu (biotinylated HLA-A2 plus Influenza matrix protein 58-66, immobilised on streptavidin) (human; Influenza); experiment: SPR (BIAcore) equilibrium binding, immobilised HLA-A2-flu, 37 °C, mean ± range

B1: soluble CD8αα receptor (residues 1-120 of the mature human CD8α protein, expressed in E. coli and refolded as a homodimer) (receptor)
chain: not shown
notes: also called sCD8αα; CD8 A
[1]
  koff: 18 s⁻¹
  kon: ≥ 140000 M⁻¹ s⁻¹
[2]
  Kd: 629 µM
